What is called Kd is a measure of binding affinity in units of concentration. A low value points to higher affinity.

Series [1] has as its target apoptosis inducing factor (AIF) (Homo sapiens, UniProt O95831). In words: ITC. The format is binding.
Series [2] has as its target T1, AIF (57 kDa form, AIFΔ1-121) (human, UniProt O95831 122-613). The series can be described thus: photonic crystal biosensor.
Series [3] has as its target T2, MazEF toxin-antitoxin complex (UniProt P0AE72;P0AE70 1-82;1-111). In words: photonic crystal biosensor.
Series [4] addresses T2, MazEF toxin-antitoxin complex. The series can be described thus: competition.
For series [5], the target named is T1, AIF (57 kDa form, AIFΔ1-121). The series can be described thus: competition.
Series [6] addresses T2, MazEF toxin-antitoxin complex. In words: photonic crystal biosensor. This is another data set of the same source.

T2 sequence (P0AE72 whole entry, chain 1 of 2): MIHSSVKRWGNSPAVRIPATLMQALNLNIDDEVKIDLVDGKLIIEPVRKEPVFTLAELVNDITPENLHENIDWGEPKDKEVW
T2 sequence (P0AE70 whole entry, chain 2 of 2): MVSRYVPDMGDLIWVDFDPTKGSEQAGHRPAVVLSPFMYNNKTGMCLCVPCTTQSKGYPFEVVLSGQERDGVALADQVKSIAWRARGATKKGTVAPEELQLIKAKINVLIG
T1 sequence (O95831 122-613, stated change not applied): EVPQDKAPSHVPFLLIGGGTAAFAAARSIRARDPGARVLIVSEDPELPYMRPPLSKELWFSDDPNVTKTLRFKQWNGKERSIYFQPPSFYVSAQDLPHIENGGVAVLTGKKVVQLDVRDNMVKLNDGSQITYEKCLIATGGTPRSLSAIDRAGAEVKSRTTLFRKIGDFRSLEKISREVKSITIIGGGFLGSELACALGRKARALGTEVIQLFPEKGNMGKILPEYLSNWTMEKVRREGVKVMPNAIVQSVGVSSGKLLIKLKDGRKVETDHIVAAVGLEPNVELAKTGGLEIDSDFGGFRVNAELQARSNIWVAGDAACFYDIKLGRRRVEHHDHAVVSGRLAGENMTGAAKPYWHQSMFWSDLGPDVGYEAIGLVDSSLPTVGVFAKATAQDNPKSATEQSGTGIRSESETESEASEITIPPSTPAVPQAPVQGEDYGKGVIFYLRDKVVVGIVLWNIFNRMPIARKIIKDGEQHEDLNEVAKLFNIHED
Sequence of apoptosis inducing factor (AIF) (O95831 122-613): as the sequence (O95831 122-613, stated change not applied) above

The molecule `O=C(O)C1=CC(=C(c2ccc(O)c(C(=O)O)c2)c2ccc(O)c(C(=O)O)c2)C=CC1=O` [ATA, aurin tricarboxylic acid] yielded a dissociation constant (Kd) in series [1] of 19 ± 5 µM.

B1: randomized 30 bp dsDNA, biotinylated (dsDNA)
DNA 1: CCGGTACGATACGACGATCGATAGTAGGCC
DNA 2: GGCCTACTATCGATCGTCGTATCGTACCGG
Turning to B1, the binding result in series [2] is recorded as “binds”.

B2: MazEF promoter DNA, biotinylated (dsDNA)
DNA 1: GCTCGTATCTACAATGTAGATTGATATATACTGTATCTACATATGATAGC
DNA 2: GCTATCATATGTAGATACAGTATATATCAATCTACATTGTAGATACGAGC
Turning to B2, the binding result in series [3] is “binds”.

B3: MazEF promoter DNA, nonbiotinylated (dsDNA)
DNA 1: GCTCGTATCTACAATGTAGATTGATATATACTGTATCTACATATGATAGC
DNA 2: GCTATCATATGTAGATACAGTATATATCAATCTACATTGTAGATACGAGC
In the case of B3, in series [4], the binding result was “binds”.

B4: randomized 30 bp dsDNA, nonbiotinylated (dsDNA)
DNA 1: CCGGTACGATACGACGATCGATAGTAGGCC
DNA 2: GGCCTACTATCGATCGTCGTATCGTACCGG
In the case of B4, the binding result in series [5] was “binds”.

B5: alternating GC control DNA, biotinylated (dsDNA)
DNA 1: GCGCGCGCGCGCGCGCGCGCGCGCGCGCGCGCGCGCGCGCGCGCGCGCGC
DNA 2: CGCGCGCGCGCGCGCGCGCGCGCGCGCGCGCGCGCGCGCGCGCGCGCGCG
B5: in series [6], the binding result is listed as “no binding”.
